# From patent US20230203156A1 (WILLIAM ROBERT ARATHOON LIVING TRUST DATED AUGUST 29 2016, published 2023)
# Substitutions are numbered along the chain they refer to.
# B1: KPA08 (antibody, V domains shown)
# VH: EVKVVESGGVLVRPGGSLKLSCAASGFTFSRYTMSWVRQTPEKRLEWVATISSGGGNTYYPDSVKGRFTVSRDNAMSSLYLQMSSLRSEDTALYYCARYGAGDAWFAYWGQGTLVTVSS
# VL: DVLMTQTPVSLSVSLGDQASISCRSSQSIVHSTGNTYLEWYLQKPGQSPKLLIYKISNRFSGVPDRFSGSGSGTDFTLKISRVEAEDLGVYYCFQASHFPRTFGGGTKLEIK
# B2: B1.217 (antibody, human IgG1, V domains shown)
# VH: EVQLVESGGALVKPGGSLKLSCAASGFTFSNYAMSWVRQTPEKRLEWVATISSGGSYTYYPDSVKGRFTISRDNAKNTLYLQMSSLRSEDTALYYCTKYSNYGRFAYWGQGTLVTVST
# VL: B1 VL with V9L, S12P, I56V, A96G, F99I, R101Y
# B3: B1.198 (antibody, human IgG1, V domains shown)
# VH: B2 VH with T97A, T118A
# VL: B1 VL with L3V, V9L, S12P, H31D, T33N, I56V, S61F, A96G, F99V, R101Y
# B4: B1.27 (antibody, human IgG1, V domains shown)
# VH: EVKLVESGGGLVKPGGSLKLSCAASGFTFSSYTMSWVRQTPEKRLEWVATVSSGGGNTYYPDSVKGRFTISRDNAKNNLYLQMSSPRSEDTALYYCARYGNYGWFTYWGQGTLVTVSS
# VL: B1 VL with L3V, V9L, S12P, S28N, E39D, I56V, Y92F, A96G, F99I
# B5: B1.188 (antibody, human IgG1, V domains shown)
# VH: EVMLVESGGALVKPGGSLKLSCAASGFTFSNYAMSWVRQTPEKRLEWVATISSGGSYTYYPDSVKGRFTISRDNARNTLYLQMSSLRSEDTAMYYCARGYGNFAWFAYWGQGTLVTVSA
# VL: B1 VL with V2I, L3Q, T7S, V9L, S12P, I56V, A96G, F99V, R101F, G105S
# B6: B1.225 (antibody, human IgG1, V domains shown)
# VH: EVQLVESGGALVKPGGSLKLSCAASGFTFSNYGMSWVRQTPEKRLEWVATISSGGSYTYYPDTVKGRFTISRDNAKNTLHLQMSSLRSEDTALYYCARRGTNDAWFGYWGQGTLVTVSA
# VL: DVVMTQTPLSLPVSLGDQASISCRFSQSIVHSNGNTYLEWYLQKPGQSPKLLIYKVSNRFFGVPDRFSGSGSGTDFTLKISRVEAEDLGVYFCFQGSHVPQYTFGGGTKLEIK
# B7: B1.219 (antibody, human IgG1, V domains shown)
# VH: B2 VH with G54V, N77T, S85G, T97A, Y107S
# VL: DVLMTQTPLSLPASLGDQASISCRSSQSIVHSSGNTYLEWYLQKPGQSPRLLIYKVSNRFFGVPDRISGSGSGTDFTLRISRVEAEDLGVYYCFQGSHVPYTFGGGTKLEIE
# B8: B1.223 (antibody, human IgG1, V domains shown)
# VH: B2 VH with Q3K, N77T, S85G, T97A, Y99F, Y107S, T118S
# VL: B7 VL with V2I, L3Q, T5I, T7S, A13V, I111L, E112K
# B9: B1.178 (antibody, human IgG1, V domains shown)
# VH: EAQLVESGGALVKPGGSLKLSCSASGFTFSNYAMSWVRQTPEKRLEWVATISSGGTNTYYPGSVKGRFTIARDNAKNTLYLLMSSLRSEDTALYFCARYSNLAWFASWGQGTLVTVSA
# VL: DVVMTQTPLSLPVSLGDQASISCRSSQSIVHSNGNTYLEWYLQKPGQSPKFLISKVSNRFSGVPDRFSGSGSGTDFTLKISRVEAEDLGIYYCFQGSHVPYTFGGGTKLEIK
# B10: B1.226 (antibody, human IgG1, V domains shown)
# VH: B2 VH with K43T, T97A, K98R, Y102L, G103A, R104W, T118A
# VL: B9 VL with E39D, L52M, S54Y, I90V
# B11: B1.207 (antibody, human IgG1, V domains shown)
# VH: B2 VH with E1G, N77T, S85G, T97A, Y107S
# VL: B7 VL with A13V, E112K
# B12: B1.201 (antibody, human IgG1, V domains shown)
# VH: EVQLVESGGALMKPGGSLKFSCAASGFTFTNYAMSWVRQTPEKRLEWVATISSGGSNTYYSDSVKGRFTISRDNAKTTLYLQMSGLRSEDTALYYCAKFSNFGRFASWGQGTLVTVSA
# VL: B7 VL with A13V, S25F, E112K
# Target: human MDR1 (multidrug resistance protein 1) (human, UniProt P08183 1-1280)
# Test: cell-based or functional assay
row,IC50 of vincristine on N6/ADR cells with antibody [nM],Binder
1,2.93,B1
2,0.0386,B2
3,0.0167,B3
4,2.83,B4
5,0.0929,B5
6,0.0035,B6
7,0.0103,B7
8,0.0068,B8
9,0.0528,B9
10,0.0138,B10
11,0.0095,B11
12,0.0216,B12
